{
  "source": "paper PMC8423306",
  "about": "“Coordinated action of multiple transporters in the acquisition of essential cationic amino acids by the intracellular parasite Toxoplasma gondii” (PLoS Pathogens, 2021)",
  "molecules": {"B1": {"name": "TgApiAT6-1 (Toxoplasma gondii ME49) (protein)", "chain": "MASSDSNAKLASQRLHSCAGGEESSGQCLEKQGAGARLRGWLAQLLPRADLPGARQKTPFNLNRYVLLLLYSIVVFTTGAVFYGWTALSAMIFKNDGFAYLCPKDASGVYVPDLRATQGKLYICDEQDAAVQKLYTMTFAVACLMSAGAGTLLDWLGPLWTELLGQLLNLVGWLFLAFSTVDRPLYYPALVFIGLGADASMLPTLCIRHLFPGSTGLIITILGSAASASFGIPLVLNTIVENHGVSVRDVSIGYCFFGPVLGVLVALLFMPRRGFALDDAGTIFREPDSGEGEGEAGPYALENGAQGGESQNAQETRRRKLLDPIVSSSFWTQFFSIRYFLIVLYFVVVSWATSYYQQAARRMFSEDVVSVIEVLLPLSFIPCILLGKVADVVGIIRVLFVMNTSGLLTYVFSFFKTDATGYLSACCFMVYMSLLTSQVYVYVEGTFSPNHFGKLIGISNLTGGLLSLVSNPLYENITVNRDNGDPLCIQIAMTALLCVQYVWIFILGFLKSGNSPLLNMDVKAKDDADAEKRADNAPGAEERTSAPSGSSSELAAVTVTPPQDSA", "notes": "HA-tagged TgApiAT6-1 open reading frame expressed in Xenopus laevis oocytes"}},
  "key": {"TgApiAT6-1 [1]": {"biological_target": "T1, TgApiAT6-1 (Toxoplasma gondii, UniProt A0A125YQS6)", "T1 construct": "gene ApiAT6-1; HA-tagged TgApiAT6-1 open reading frame expressed in Xenopus laevis oocytes", "T1 sequence (A0A125YQS6 1-566)": "B1 chain", "experiment": "inhibition of […]Arg uptake at […] and trans-stimulation of Arg uptake in Xenopus oocytes", "assay_type": "cell-based"}, "TgApiAT6-1 [2]": {"biological_target": "T1, TgApiAT6-1", "experiment": "radiolabelled uptake in Xenopus oocytes; inhibition of Arg uptake at […]; trans-stimulation", "assay_type": "cell-based"}, "TgApiAT6-1 [3]": {"biological_target": "T1, TgApiAT6-1", "experiment": "inhibition of […]Arg uptake at […] and trans-stimulation of Arg efflux in Xenopus oocytes", "assay_type": "cell-based"}, "[4]": {"substrate": "N=C(N)NCCC[C@H](N)C(=O)O", "experiment": "cells, lysate or membranes", "assay_type": "cell-based, Toxoplasma gondii", "details": "same binding site as Lys"}, "[5]": {"substrate": "NCCCC[C@H](N)C(=O)O", "experiment": "cells, lysate or membranes", "assay_type": "cell-based, Toxoplasma gondii", "details": "same binding site as Arg; competitive with Arg"}},
  "data": [
    {"molecule": "N[C@@H](Cc1ccccc1)C(=O)O", "note": "[Phe, phenylalanine]", "values": [
      {"measurement": "inhibition of [14C]Arg uptake at 10 mM and trans-stimulation of Arg uptake in Xe", "setting": "TgApiAT6-1 [1]", "result": "numerous neutral amino acids including Met, Leu, Phe and His partially inhibited Arg uptake"}
    ]},
    {"molecule": "CC(C)C[C@H](N)C(=O)O", "note": "[Leu, leucine]", "values": [
      {"measurement": "radiolabelled uptake in Xenopus oocytes; inhibition of Arg uptake at 10 mM; tran", "setting": "TgApiAT6-1 [2]", "result": "TgApiAT6-1 also mediated uptake of Arg and some neutral amino acids including Met and Leu"}
    ]},
    {"molecule": "CSCC[C@H](N)C(=O)O", "note": "[Met, methionine]", "values": [
      {"measurement": "radiolabelled uptake in Xenopus oocytes; inhibition of Arg uptake at 10 mM; tran", "setting": "TgApiAT6-1 [2]", "result": "TgApiAT6-1 also mediated uptake of Arg and some neutral amino acids including Met and Leu"}
    ]},
    {"molecule": "N[C@@H](Cc1c[nH]cn1)C(=O)O", "note": "[His, histidine]", "values": [
      {"measurement": "inhibition of [14C]Arg uptake at 10 mM and trans-stimulation of Arg efflux in Xe", "setting": "TgApiAT6-1 [3]", "result": "numerous neutral amino acids including Met, Leu, Phe and His partially inhibited Arg uptake"}
    ]},
    {"molecule": "B1", "values": [
      {"measurement": "K0.5", "setting": "[4]", "result": 748, "unit": "µM"},
      {"measurement": "kcat", "setting": "[4]", "result": "0.28 ± 0.1", "unit": "s⁻¹"},
      {"measurement": "kcat/Km", "setting": "[4]", "result": 379, "unit": "M⁻¹ s⁻¹"},
      {"measurement": "K0.5", "setting": "[5]", "result": 22.8, "unit": "µM"},
      {"measurement": "kcat", "setting": "[5]", "result": "0.042 ± 0.004", "unit": "s⁻¹"},
      {"measurement": "kcat/Km", "setting": "[5]", "result": 1840, "unit": "M⁻¹ s⁻¹"}
    ]}
  ]
}
